Assay results: the nanobody polyreactivity screen of Harvey et al. (2022)

Experiment: yeast display, Sf9 membrane polyspecificity reagent, FACS + sequencing; frameworks hold sequencing errors
Summary of the method: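 Polyreactivity labels are assigned by the sorting gate from which each nanobody was recovered. The gates were low and high (top ~1%), set on anti-HA fluorescence for expression and streptavidin fluorescence for reagent binding. Before sorting, galactose-induced (36–48 hours) yeast display cells were stained for 1 hour at 4 °C with 10% biotinylated, detergent-solubilized Sf9 membrane reagent.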

Row | Sequence | polyreactivity (PSR sort gate)
1 | QVHHVESGFGLVQAGGSLRLSCASSGTFTVNTMGWYRQAPGKERELVAAISTGDTTTYADSVKGRFTISRDNAKNTVYLQMNSLKPEDTAVYYCNVDIGVYAYESDYWGQGTQVTVSS | low polyreactivity
2 | QVQLVESGGGLVQARGSLRLSCAASGFTFDQYTMGWYRQAPGKERELVAAISSSGGSTYYADSVKGRFTISRDNAKKTVYLQMNSLKPEDTAVYYCAARFLLTQRFSHDYWGQGTQVTVSS | low polyreactivity
3 | QVQLVESGGGLVQAGGSLRLSCAASGIIFYDYAMGWYRQAPGKERELVAAISRSGSSTYYADSVKGRFTISRDNAKNTVYLQMNSLKPEDTAVYYCASRFGDMGYWGQGTQVTVSS | high polyreactivity
4 | QVQLVDSGGGLVQAGGTLRLSCSASGRTFPTYAMGWYRQAPGKEREVVAAISSSGCSTYYADSVKGRFTISRDNAKNSVYLQMHSLKPEDTAVYYCAALRDRNLNPGYDYWGQGTQLTVSS | low polyreactivity
5 | QVQLVESGGGLVQAGGSLRLSCAASGSIYVSYAMGWYRQAPGKERELVATITTSTGSTYADSVKGRFTISRDNAKNTVYLQMNSLKPEDTAVYYCAARYQPWLNDDFDSWGQGTQVTVSS | low polyreactivity
6 | QVQLVESGGGVVQAGGSLRLSCAASGSIFNRYAMGWYRQAPGKERELVAAISTHTGTTYYADSVKGRFTISRDNAKNTVYLQMNSLKPEDTAVYYCNAATYGGRYYYWGQGTQVTVSS | high polyreactivity
7 | QDQIGESGGGLVQAGGSLSLSCAASGTTIVNNAMGRNRQARWKERELVAAITQRGGRSSYADSVNGRFTISRDNAKNTVYLQMNSLKPEDTAVYYCATVATCRHKGKYNYLGQGTQVTVSS | low polyreactivity
8 | QVQLVESGGGLVQAGGSLRLSCAASGSIFRVYAMGWYRQAPGKERELVAAISKSGSSTYYADSVKGRFTISRDNAKNTVYLQMNSLKPEDTAVYYCAARRVLGEYGYWGQGTQVTVSS | high polyreactivity
9 | QVQLVESGGGLVQAGGSLRLICAASGIIFNYNAMGWYRQAPGNERELVATISSGDSTNYADSVKGRFTISRDNAKNTVYLQMNSLKPEDTAVYYCAAESPSVFEGYAQLYIILEDYWGQGTQVTVSS | low polyreactivity
10 | QVQVVESGGGLVHAVCSLRLSCAASGRIFSTYALGLYRPAPGKERELVAAISSSGARTYYADSVKGRFTISRDNAKNNVYLQMNSLKPEDTSVYYCAAPPYNRPGYGYDYWGQGTQVTVSS | high polyreactivity
11 | QVQLVESGGGLVQEGGSLRLSCAASGSIFDVYAMGWYRQAPGKERELVAAISSSGSTYYADSVKGRFTISRDNAKNTVYLQMNSLKPEDTAVYYCASDQADDDDYYYWGQGNQVTVSS | low polyreactivity
12 | QVQLVESGGGLVQAGGSLRLSCAASGSIFDWYAMGCYRQAPGKEGELVAAISSGDSTYYADSVKGRFTISRDNAKNTVYLQMNSLKPEDTAVYYCAAVTKLSGIRYNYWGQGTQVTVSS | low polyreactivity
13 | QVQLVESGGGLVQAGGSLRLSCAASGSIIRWNAMGWYRQAPGKERELVAAITGGGGNTYYSDSVKGRFTISRDNAKNTVYLQMNSLKPEDTAVYYCNVVYRNYRNDYWGQGTQVTVSS | high polyreactivity
14 | QVQHVESGVGLVQAGGSLRLSCAASGRIFRWNAMGWYRQAPGKERELVAAISWNGGRTYYADSVKGRFTISRDNAKNTVYLQMNSLKPEDTAVYYCAAPHCVPDLHSGDYWGLGTQVTVSS | low polyreactivity
15 | QVQLVESGGGLVQAGGSLRLSCAASGRIFSDYAMGWYRQAPGKERELVATITSGDSTNYADSVKGRFTISRDNAKNTVYLQMNSLKTEDTAVYYCNADRFADYDYWGQGTQVTVSS | low polyreactivity
16 | QVQLVESGGGLVQAGGSLRLSCAASGRIFYLNAMGWYRQAPGKERELVAVITGNAGSTYYADSVKGRFTISRDNAKNTVYLQMNSLKPEDTAVYYCNALRLVPWSDALYDYWGQGTQVTVSS | low polyreactivity
17 | QVQLVESGGGLVQAGGSLRLSCAASGRIFHSNTKGWYRQAPGKERELVARISSVGSTNYADSVKGRFTISRDNAKNTVYLQMNSQKPEDTAVYYCAAQRYYTQSSYYLALYDFWGQGTQVTVSS | low polyreactivity
18 | QVQLVESGGGLVQAGGSLRLSCAASGLTFRYYAMGWYRQAPGKERELVAAISRSGGSTYYADSVKGRFTISRDNAKNTVYLQMNSLKPEDTAVYYCAAGRRGGKQGGTRGGDYWGQGTQVTVSS | high polyreactivity
19 | QVQRVESGGGLVQAGGSLRLSCAASGITFGIYVMGWYRQAPGKETELVATISRSDDNTYYADSVKGRFTISRDNAKNTVYLQMNSLKPEDTAVYYCAADGVISAWYSSRDDYWGQGTQVTVSS | low polyreactivity
20 | QVQLVESGGGLVQAGGSLRLSCAASGSTFRQYAMGWYRQAPGKERELVAAINWSGSSTYYADSVKGRFTISRDNAKNTVYLQMNSLKPDDTAVYYCAAVVQYWWWKGRGYWGQGTQVTVSS | high polyreactivity
21 | QVQLVESGGGLVQAGGSLRLSCAASGSIFYYYAMGWYRQAPGKEREFVAAIRESGGSTYYADSVKGRFTISRDNAKNTVYLQMNSLKPEDTAVYYCAVRRPRRNYNYPYDYCGQGTQVTVSS | low polyreactivity
22 | QLQLVESGGGLVQAGGSLRLSCAASGSTFHYYDMGWNRKATGKERELVAAISSGGDSTYYADSVKGRFTISRDNAKNTVYLQMNSLKPEDTAVYYCAAAVYYGQSVWYYYWGQGTQVTVSS | high polyreactivity

Row | Sequence | polyreactivity (PSR sort gate)
23 | QVQLVESGGGLVQAGGSLRLSCAASGSIFSYYDMGWYRQAPGKERELVADISSTGGSTYYADSVKGRFTISRDNAKNTVSIQMNSLKPEDTAVYYCAAEIGYWGQGTQVTVSS | high polyreactivity
24 | QVQLVESGGGLVQAGGSLRLSCAASGYTFAPNTMGWYRQAPGKERELVATITVSGGITYADSVKGRFTISRDNAKNTVYLQMNSLKPEDTAVYYCAARTPGWYLPRDYWGQGTQVTVSS | low polyreactivity
25 | QVQLVESGGGLVQAGGSLRLSCAASGRIFKRYTLGWYRPAPAKERELVAAITKRADRTNYADSVKGRFTISRDNAKNTVYLQMNSLKPEDTAVYDCNAEGQNDHPSNGYISYKYDYWGQGTQVTVSS | low polyreactivity
26 | QVQLVESGGRLVQAGGSLRLSGAASGITLGTYLMGWYRQAPGKEREMLAAISSGGSTYYADSVKGRFTISRDNAKNTVFLQMNSLKPEDTAVYYCAAQYYPYYDSRVSYDYWGQGTQVTVSS | low polyreactivity
27 | QVQLVESGGGLVQAGGSLRLSCAASGRTFKCYAMGWYRQAPGKETELVAAISYRGGSTYYADSVKGRFTISRDNAKNTVYLQIKRLKPEDTAVYYCAARWNRGRYDYWGQGTQVTESS | high polyreactivity
28 | QVQLVESGGGLVQAGGSLRLSCAASGRIFPHYAIGWYRQAPGKERELVAAISTSGGSTYYADSVKGRFTISRDIAKNTVYLQLNCLKPEDTEVYYCAARGYQYGFYYLVIYDYWGQGTQVTVSS | low polyreactivity
29 | QVQLVESGGGLVQAGGSLRLSCAASGFTFIYYALGWYRQAPGKERELLATISYDGGSTYYSDSVKGRFTISRDNAKNTVYLQMNSLKPEDTAVYYCNADFADDKYYLFESELEYDYWGQGTQVTVSS | low polyreactivity
30 | QVQLVESGGRLVQAGGSLRLSCAASGSTFSRNARGWNRQAPGKERELVAAISRSSSRTYYADSVKGRFTISRDNAKNTVYLQMNSLKPEDTAVYYCAADGYVWTPYLYDYWGQGTQVTVSS | high polyreactivity
31 | QVQLVESGGGLVQAGGSLRLSCAASGRILAYNVMGWYRQAPGKEREFVASIRRTGVRTYYADSVKGRFTISRDNAKNTVYLQMNSLKPEDTAVYYCNAANFNFWDYYYWGQGTQVTVSS | low polyreactivity
32 | QVQLVESGGGLVQAGGRLRLSCAASGSTCGPYTLGWYRQAPGTEREVVATISSGGSTYYADSVKWRFTISRDNAKNTVYLQMNSLKPEDTAVYFCNKDFFYLRTWRSVYEFEYWGQGTQVTVSS | low polyreactivity
33 | QVQLVESGGGLVQAGGSLRLTCAASGAIFEYYSMSWYIQAPGKERELVAAISSGGPTYYADSVKGRFTISRDNAKNTVYLQMNSLKPEDTAVYYCNADLWYPDYEYWGQGTQVNVSS | low polyreactivity
34 | QVQLVESGGGLVQAGGSLRLSCAASGSTFSKNTMGWYRQAPGKERELVAAITTRGSSTYYADSVKGRFTISRDNAKNTVYLQMNSLKPEDTAVYYCAAGRYGWKHVWYYYWGQGTQVTVSS | high polyreactivity
35 | QVQLVESGGGLVQAGGSLRLSCAASGITFATNAMGWYRQAPGKERELVAGITSGGSTYYADSVKGRFTISRDNAKNTVYLQMNSLKPEDTAVYYCAKRYHYWYGTGYDYWGQGTQVTVSS | low polyreactivity
36 | QVQLVESGGGLVQAGGSLRLSCAASGSTFCDYAMGWYRQAPGKERELVAAISSGGSTNYADSVKGRFTISRDNAKNTVYLQMNSLKPEDTAVYYCAVGYGGYYYWGQGTQVTVSS | high polyreactivity
37 | QVQLVESGGGLVQAGGSLRLSCAASGRTFYRYAMGWYRQAPGKERELVASITWSGGSTYYADSVKGRFTISRDNAKNTVYLQMNSLKPEDTAVYYCAAISAVTLRGYYYWGQGTQVTVSS | high polyreactivity
38 | QVQLVESGGGLVQAGGSLRLSCAASGSTFGPYAMGWYRQAPGKERELVADISGGSTNYADSVKGRFTISRDNAKNTVYLQMNSLKPEDTAVYYGAADSYPAYLGFVGFDYWGQGTQVTVSS | low polyreactivity
39 | QVQLVESGGGLVQAGGSLRISCAASGRTFDYNAMGWYRQAPGKERELVAAIRFGGGSTYYADSVKGRFTISRDNAKNTVYFQMNSLKPEDTAVYYCNASPLWIGWEIVPVGSSHYDYWGQGTQVTVSS | low polyreactivity
40 | QVQLVESGGGLVQAGGSLRLSCAASGSTFYTNAMGWSRQAPGTERELVAAISGSGGSTYYADSVKGRFTISRDNAKNTVYVQMNSLKPEDTAVYYCAARSRYYYTRFDYWGQGTQVTVSS | low polyreactivity
41 | QVQLVESGGGLVQAGGSLRFSCAASGITFKGYAMGWYRQAPGKERELVAAINSRGGTYADSVKGRFTISRDNAKNTVYLQMNSLKPEDTAVYYCAVTAVRPLPLDSGYDYWGQGTQVTVSS | low polyreactivity
42 | QVQLVESGGGLVQAGGSLRLSCAASGRILYSYAMGWYRQAPGKERELVAAISSTGSTYYADSVKGRFTISRDNAKNTVYLQMNSLKPEDTAVYYCAATFFPYQVHHYYYWGQGTQVTVSS | low polyreactivity
43 | QVQLVESGGGLVQAGGSLRLSCAASGRTFTKYAMGWYRQAPGKERELVAGITRRGGNTYYADSVKGRFTISRDNAKNTVYLQMNSLKPEDTAVYYCAKGYDFLRYDYWGQGTQVTVSS | high polyreactivity
